Test results taken from the supplement of paper PMC10126150.
± gives the standard deviation of the averaged measurements.

Tested on: ATP
Assay: switch fluorescence ratio, 500 uM ATP over buffer (Cy3 cluster intensity, sum of 5 cycles each) (fold (ratio)); higher = stronger signal-on switching upon ATP binding; sequences stand for … in TCGTCGGCAGCGTCAGATGTGTATAAGAGACAGTTTTTTTTTTTTTTTTTTTTTTTTT…TC
Settings: aptamer strand: ATP DNA aptamer (quencher-CACCTGGGGGAGTATTGCGGAGGAAGG + anchor), 100 nM annealed; ATP concentration: 500 uM
Method in brief: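 Clusters with intensities outside 100-1000 RFU were excluded. The remaining Cy3-labelled switching-strand clusters on a modified Illumina MiSeq flow-cell had been annealed to 100 nM quencher-labelled ATP aptamer and imaged in selection buffer, then after 15 min with 500 uM ATP at 22 °C, for five cycles separated by NaOH stripping and re-annealing. The fluorescence ratio, averaged per switch-domain sequence, is each cluster's summed target-cycle Cy3 intensity over its summed buffer-cycle Cy3 intensity.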
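Note: ATP exposure 15 min at 22 °C before imaging.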

| Sequence | switch fluorescence ratio |
| --- | --- |
| GGACAATATA | 1.003 ± 0.0016 |
| GGACAGAGGT | 1 ± 0.044 |
| GGACAGGGGT | 1.03 ± 0.073 |
| GGACATATTT | 1.03 ± 0.042 |
| GGACATGGAC | 0.9775 ± 0.0044 |
| GGACATGGGT | 1 ± 0.019 |
| GGACATTATA | 1.031 ± 0.0056 |
| GGACCAAGGT | 1.01 ± 0.014 |
| GGACGAGGTG | 0.9756 ± 0.0049 |
| GGACGCCTTG | 0.976 ± 0.029 |
| GGACGCCTTT | 0.9753 ± 0.0077 |
| GGACGCTATC | 3.89 ± 0.42 |
| GGACGGGTTA | 1 ± 0.016 |
| GGACGGTATG | 1.02 ± 0.031 |
| GGACGTTTTG | 0.98 ± 0.012 |
| GGACTAGGAG | 1.05 ± 0.012 |
| GGACTCCCAT | 1.23 ± 0.074 |
| GGACTTGCGA | 1.043 ± 0.0042 |
| GGACTTTAAG | 0.952 ± 0.046 |
| GGACTTTAAT | 1 ± 0.017 |
| GGAGAAAAGA | 0.9862 ± 0.0076 |
| GGAGAAATTT | 0.9816 ± 0.0062 |
| GGAGAACTTA | 1.04 ± 0.051 |
| GGAGAAGGCG | 0.994 ± 0.053 |
| GGAGAAGGGA | 0.973 ± 0.062 |

| Sequence | switch fluorescence ratio |
| --- | --- |
| GGAGACGGGA | 1.06 ± 0.016 |
| GGAGAGGGGA | 0.982 ± 0.014 |
| GGAGAGTCCG | 1.03 ± 0.036 |
| GGAGATATGT | 0.987 ± 0.026 |
| GGAGATTGGG | 0.9697 ± 0.0033 |
| GGAGATTGGT | 0.983 ± 0.024 |
| GGAGATTTTG | 1 ± 0.042 |
| GGAGCACGTG | 1.12 ± 0.058 |
| GGAGCATTTG | 1.27 ± 0.039 |
| GGAGCGGACG | 1 ± 0.016 |
| GGAGCTCGGG | 0.975 ± 0.038 |
| GGAGCTGCGT | 1.056 ± 0.0098 |
| GGAGGAGAGC | 0.994 ± 0.015 |
| GGAGGAGGGC | 0.909 ± 0.043 |
| GGAGGCCAGC | 1.05 ± 0.075 |
| GGAGGCGTTT | 0.996 ± 0.04 |
| GGAGGGAACT | 1.2 ± 0.34 |
| GGAGGGCAAA | 1.01 ± 0.025 |
| GGAGGGCACG | 0.967 ± 0.053 |
| GGAGGGGCTG | 1.02 ± 0.085 |
| GGAGGGGGCA | 0.9654 ± 0.0011 |
| GGAGGTAAGG | 0.973 ± 0.025 |
| GGAGGTGTGT | 1.02 ± 0.021 |
| GGAGGTTGGG | 0.958 ± 0.013 |
| GGAGTAAAGA | 0.992 ± 0.037 |

| Sequence | switch fluorescence ratio |
| --- | --- |
| GGAGTACGG | 1.03 ± 0.028 |
| GGAGTACGGC | 1.06 ± 0.052 |
| GGAGTATATC | 1.08 ± 0.073 |
| GGAGTATTTT | 1.12 ± 0.29 |
| GGAGTCACTG | 1.02 ± 0.017 |
| GGAGTCAGCG | 0.977 ± 0.025 |
| GGAGTCATTT | 1 ± 0.014 |
| GGAGTCGTTA | 1 ± 0.041 |
| GGAGTGAGCG | 0.995 ± 0.036 |
| GGAGTGAGGT | 0.999 ± 0.03 |
| GGAGTGCAG | 0.964 ± 0.025 |
| GGAGTTGTTA | 0.985 ± 0.013 |
| GGAGTTTTGA | 0.982 ± 0.02 |
| GGATAAGGGG | 1.02 ± 0.039 |
| GGATAAGGTT | 0.9871 ± 0.0022 |
| GGATACTAGT | 1.04 ± 0.069 |
| GGATAGGGGG | 0.9963 ± 0.0012 |
| GGATAGTCAG | 0.984 ± 0.016 |
| GGATATACTT | 1.03 ± 0.024 |
| GGATCATCGC | 1.027 ± 0.0065 |
| GGATCCATTC | 0.972 ± 0.019 |
| GGATCGGTCA | 1.016 ± 0.0089 |
| GGATCTTTTT | 1.03 ± 0.026 |
| GGATGAAGGG | 0.981 ± 0.022 |
| GGATGAGGCA | 1.02 ± 0.022 |

| Sequence | switch fluorescence ratio |
| --- | --- |
| GGATGAGTAT | 1.02 ± 0.058 |
| GGATGATGCA | 1.03 ± 0.028 |
| GGATGCAGTT | 0.99 ± 0.026 |
| GGATGCCGGG | 1 ± 0.043 |
| GGATGCCTTT | 0.977 ± 0.026 |
| GGATGCGGGA | 0.98 ± 0.028 |
| GGATGCTTTC | 1.02 ± 0.026 |
| GGATGGAAAG | 0.999 ± 0.015 |
| GGATGGATTG | 1.004 ± 0.0022 |
| GGATGGCTCG | 0.993 ± 0.051 |
| GGATGGGGAA | 0.998 ± 0.024 |
| GGATGGGGCA | 1 ± 0.023 |
| GGATGGGGCC | 0.995 ± 0.032 |
| GGATGGGGCG | 0.995 ± 0.027 |
| GGATGGTAGT | 1.01 ± 0.071 |
| GGATGGTGTT | 0.958 ± 0.026 |
| GGATGTGGGT | 1.011 ± 0.0037 |
| GGATTAAGGG | 0.993 ± 0.024 |
| GGATTAATCT | 0.998 ± 0.019 |
| GGATTACGAC | 1.12 ± 0.15 |
| GGATTACGGT | 1.01 ± 0.03 |
| GGATTAGCGA | 0.975 ± 0.025 |
| GGATTAGGTC | 1.02 ± 0.019 |
| GGATTAGTTT | 0.994 ± 0.029 |
| GGATTATGGA | 0.971 ± 0.025 |
